Assay [1] concerns the target cell surface GDF-8 binding proteins on L6 myoblasts. Nature of the assay: I-125 labeled GDF-8 receptor-ligand binding assay on myoblast cells.
Assay [2] addresses myostatin mature C-terminal dimer (purified from CHO cell conditioned medium) (UniProt O08689). The assay is described as follows: inhibition of labeled myostatin binding to Act RIIB-transfected COS-7 cells.
The target is the same in assay [3]. Nature of the assay: inhibition of labeled myostatin binding to Act RIIB-transfected COS-7 cells; reference: follistatin Ki of approximately 470 pM.

Chain of myostatin mature C-terminal dimer (purified from CHO cell conditioned medium) (O08689 268-376 limits assumed): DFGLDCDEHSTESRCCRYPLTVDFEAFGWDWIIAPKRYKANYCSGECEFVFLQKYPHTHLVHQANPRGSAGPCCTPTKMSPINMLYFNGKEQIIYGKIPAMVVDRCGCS
Chain of Recombinant human GDF-8 (rhGDF-8) homodimer (O14793 267-374): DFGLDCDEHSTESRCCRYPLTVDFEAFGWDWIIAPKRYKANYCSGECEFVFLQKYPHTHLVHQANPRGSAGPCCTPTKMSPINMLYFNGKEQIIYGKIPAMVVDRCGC

Usually Kd stands for the constant that tells how readily two partners part at equilibrium. A higher Kd goes with a looser complex. Turning to “Recombinant human GDF-8 (rhGDF-8) homodimer (from UniProt O14793 267-374) (ligand)”, the Kd in assay [1] came out at 370 pM.
The term Ki denotes the equilibrium dissociation constant of an inhibitor or competing ligand from its target. Read a low Ki as tighter binding. The substance follistatin had an inhibitory constant (Ki) in assay [2] of 470 pM.
In the case of “myostatin prodomain peptide (purified from CHO cell conditioned medium) (from UniProt O08689 25-267)”, the Ki, fold relative to the Ki of follistatin in assay [3] was 50 fold.

These data come from patent US20110034372A1.
